Molecular target: human GLP-1 receptor (human, UniProt P43220 24-463)
Test: cell-based or functional assay

B1: DFD59: GLP1(GEG)-HyFc40 (Fc fusion)
chain: HGEGTFTSDVSSYLEEQAAKEFIAWLVKGGGEKEKEEQEERETKTPECPSHTQPLGVFLFPPKPKDTLMISRTPEVTCVVVDVSQEDPEVQFNWYVDGVEVHNAKTKPREEQFNSTYRVVSVLTVLHQDWLNGKEYKCKVSNKGLPSSIEKTISKAKGQPREPQVYTLPPSQEEMTKNQVSLTCLVKGFYPSDIAVEWESNGQPENNYKTTPPVLDSDGSFFLYSRLTVDKSRWQEGNVFSCSVMHEALHNHYTQKSLSLSLGK
in vitro GLP-1 activity (intracellular cAMP, EC50 compared): ~2 times higher activity than the dual function proteins DFD69, DFD112 and DFD114

B2: DFD23 (Fc fusion)
chain: HGEGTFTSDVSSYLEGQAAKEFIAWLVKGRGEKEKEEQEERETKTPECPSHTQPLGVFLFPPKPKDTLMISRTPEVTCVVVDVSQEDPEVQFNWYVDGVEVHNAKTKPREEQFNSTYRVVSVLTVLHQDWLNGKEYKCKVSNKGLPSSIEKTISKAKGQPREPQVYTLPPSQEEMTKNQVSLTCLVKGFYPSDIAVEWESNGQPENNYKTTPPVLDSDGSFFLYSRLTVDKSRWQEGNVFSCSVMHEALHNHYTQKSLSLSLGKGGGGSGGGGSGGGGSHPIPDSSPLLQFGGQVRQRYLYTDDAQQTEAHLEIREDGTVGGAADQSPESLLQLKALKPGVIQILGVKTSRFLCQRPDGALYGSLHFDPEACSFREEIRPDGYNVYQSEAHGLPLHLPGNKSPHRDPAPRGPARFLPLPGLPPALPEPPGILAPQPPDVGSSDPLSMVTGLEAVRSPSYAS
in vitro GLP-1 activity (intracellular cAMP, EC50 compared): 2 to 3 times lower activity than the dual function proteins with other GLP-1 mutant sequences

From patent US20250270269A1 (YUHAN, published 2025)
